Source: patent publication US20210139548A1 (published 2021)
*1 amine or outer side, *2 acyl side, *3 side chain or, on linkers, in order; H or OH if unused. Side-chain parts run from the residue outwards. The star is where a group is joined. C18 diacid = O=C(O)CCCCCCCCCCCCCCCCC(=O)*; γGlu = O=C(O)[C@H](CCC(=O)[*:2])N[*:1]; Isovaleryl = CC(C)CC(=O)*; AEEA = NCCOCCOCC(=O)O

T1: human neuropeptide Y2 receptor (human, UniProt P49146 1-381)
T1 construct: whole, on cells; also called hNPY2 receptor; hNPY2-R
T1 sequence (looked up): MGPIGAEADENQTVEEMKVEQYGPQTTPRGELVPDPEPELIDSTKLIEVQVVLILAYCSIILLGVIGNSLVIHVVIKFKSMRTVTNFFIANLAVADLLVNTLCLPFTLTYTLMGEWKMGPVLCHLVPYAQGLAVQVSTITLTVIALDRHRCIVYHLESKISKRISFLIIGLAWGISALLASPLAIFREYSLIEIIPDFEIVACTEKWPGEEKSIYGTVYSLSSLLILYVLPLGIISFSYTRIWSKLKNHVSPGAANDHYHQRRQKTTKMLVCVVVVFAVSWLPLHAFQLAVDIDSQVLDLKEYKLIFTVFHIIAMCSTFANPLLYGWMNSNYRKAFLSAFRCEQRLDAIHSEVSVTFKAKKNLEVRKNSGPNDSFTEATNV


Target: T1, human neuropeptide Y2 receptor
Assay: radioligand competition (125I-PYY(1-36)), hNPY2R membranes
Outline: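 Commercial human Y2 receptor membranes (0.5 μg protein/well) were incubated with peptide for 2 h at room temperature in 50 mM HEPES, 5 mM MgCl₂, 1 mM CaCl₂, pH 7.4, with 0.2% ovalbumin. Bound radioligand was separated on PEI-soaked GF/C filters and counted by scintillation, and IC₅₀ came from nonlinear sigmoidal regression.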

Row | Binder | Ki
1 | Isovaleryl-APEK([AEEA-AEEA-γGlu-C18 diacid])PEEDASPEEIQRYYTELRHYYNWLTRQRY-NH2 (SMILES CC[C@H](C)[C@H](NC(=O)[C@H](CCC(=O)O)NC(=O)[C@H](CCC(=O)O)NC(=O)[C@@H]1CCCN1C(=O)[C@H](CO)NC(=O)[C@H](C)NC(=O)[C@H](CC(=O)O)NC(=O)[C@H](CCC(=O)O)NC(=O)[C@H](CCC(=O)O)NC(=O)[C@@H]1CCCN1C(=O)[C@H](CCCCNC(=O)COCCOCCNC(=O)COCCOCCNC(=O)CC[C@H](NC(=O)CCCCCCCCCCCCCCCCC(=O)O)C(=O)O)NC(=O)[C@H](CCC(=O)O)NC(=O)[C@@H]1CCCN1C(=O)[C@H](C)NC(=O)CC(C)C)C(=O)N[C@@H](CCC(N)=O)C(=O)N[C@@H](CCCNC(=N)N)C(=O)N[C@@H](Cc1ccc(O)cc1)C(=O)N[C@@H](Cc1ccc(O)cc1)C(=O)N[C@H](C(=O)N[C@@H](CCC(=O)O)C(=O)N[C@@H](CC(C)C)C(=O)N[C@@H](CCCNC(=N)N)C(=O)N[C@@H](Cc1c[nH]cn1)C(=O)N[C@@H](Cc1ccc(O)cc1)C(=O)N[C@@H](Cc1ccc(O)cc1)C(=O)N[C@@H](CC(N)=O)C(=O)N[C@@H](Cc1c[nH]c2ccccc12)C(=O)N[C@@H](CC(C)C)C(=O)N[C@H](C(=O)N[C@@H](CCCNC(=N)N)C(=O)N[C@@H](CCC(N)=O)C(=O)N[C@@H](CCCNC(=N)N)C(=O)N[C@@H](Cc1ccc(O)cc1)C(N)=O)[C@@H](C)O)[C@@H](C)O) [Compound 134] | 1.17 nM
2 | Isovaleryl-APEK([AEEA-AEEA-γGlu-C18 diacid])PEADSSPEELQRYYVSLRHYYNWLTRQRY-NH2 (SMILES CC(C)CC(=O)N[C@@H](C)C(=O)N1CCC[C@H]1C(=O)N[C@@H](CCC(=O)O)C(=O)N[C@@H](CCCCNC(=O)COCCOCCNC(=O)COCCOCCNC(=O)CC[C@H](NC(=O)CCCCCCCCCCCCCCCCC(=O)O)C(=O)O)C(=O)N1CCC[C@H]1C(=O)N[C@@H](CCC(=O)O)C(=O)N[C@@H](C)C(=O)N[C@@H](CC(=O)O)C(=O)N[C@@H](CO)C(=O)N[C@@H](CO)C(=O)N1CCC[C@H]1C(=O)N[C@@H](CCC(=O)O)C(=O)N[C@@H](CCC(=O)O)C(=O)N[C@@H](CC(C)C)C(=O)N[C@@H](CCC(N)=O)C(=O)N[C@@H](CCCNC(=N)N)C(=O)N[C@@H](Cc1ccc(O)cc1)C(=O)N[C@@H](Cc1ccc(O)cc1)C(=O)N[C@H](C(=O)N[C@@H](CO)C(=O)N[C@@H](CC(C)C)C(=O)N[C@@H](CCCNC(=N)N)C(=O)N[C@@H](Cc1c[nH]cn1)C(=O)N[C@@H](Cc1ccc(O)cc1)C(=O)N[C@@H](Cc1ccc(O)cc1)C(=O)N[C@@H](CC(N)=O)C(=O)N[C@@H](Cc1c[nH]c2ccccc12)C(=O)N[C@@H](CC(C)C)C(=O)N[C@H](C(=O)N[C@@H](CCCNC(=N)N)C(=O)N[C@@H](CCC(N)=O)C(=O)N[C@@H](CCCNC(=N)N)C(=O)N[C@@H](Cc1ccc(O)cc1)C(N)=O)[C@@H](C)O)C(C)C) [Compound 136] | 0.89 nM
3 | Isovaleryl-APEK([AEEA-AEEA-γGlu-C18 diacid])PEEESSPEELQRYYVSLRHYYNWLTRQRY-NH2 (SMILES CC(C)CC(=O)N[C@@H](C)C(=O)N1CCC[C@H]1C(=O)N[C@@H](CCC(=O)O)C(=O)N[C@@H](CCCCNC(=O)COCCOCCNC(=O)COCCOCCNC(=O)CC[C@H](NC(=O)CCCCCCCCCCCCCCCCC(=O)O)C(=O)O)C(=O)N1CCC[C@H]1C(=O)N[C@@H](CCC(=O)O)C(=O)N[C@@H](CCC(=O)O)C(=O)N[C@@H](CCC(=O)O)C(=O)N[C@@H](CO)C(=O)N[C@@H](CO)C(=O)N1CCC[C@H]1C(=O)N[C@@H](CCC(=O)O)C(=O)N[C@@H](CCC(=O)O)C(=O)N[C@@H](CC(C)C)C(=O)N[C@@H](CCC(N)=O)C(=O)N[C@@H](CCCNC(=N)N)C(=O)N[C@@H](Cc1ccc(O)cc1)C(=O)N[C@@H](Cc1ccc(O)cc1)C(=O)N[C@H](C(=O)N[C@@H](CO)C(=O)N[C@@H](CC(C)C)C(=O)N[C@@H](CCCNC(=N)N)C(=O)N[C@@H](Cc1c[nH]cn1)C(=O)N[C@@H](Cc1ccc(O)cc1)C(=O)N[C@@H](Cc1ccc(O)cc1)C(=O)N[C@@H](CC(N)=O)C(=O)N[C@@H](Cc1c[nH]c2ccccc12)C(=O)N[C@@H](CC(C)C)C(=O)N[C@H](C(=O)N[C@@H](CCCNC(=N)N)C(=O)N[C@@H](CCC(N)=O)C(=O)N[C@@H](CCCNC(=N)N)C(=O)N[C@@H](Cc1ccc(O)cc1)C(N)=O)[C@@H](C)O)C(C)C) [Compound 139] | 3.83 nM
4 | Isovaleryl-APEK([AEEA-AEEA-γGlu-C18 diacid])PEEAASPEELQRYYVSARHYYNWLTRQRY-NH2 (SMILES CC(C)CC(=O)N[C@@H](C)C(=O)N1CCC[C@H]1C(=O)N[C@@H](CCC(=O)O)C(=O)N[C@@H](CCCCNC(=O)COCCOCCNC(=O)COCCOCCNC(=O)CC[C@H](NC(=O)CCCCCCCCCCCCCCCCC(=O)O)C(=O)O)C(=O)N1CCC[C@H]1C(=O)N[C@@H](CCC(=O)O)C(=O)N[C@@H](CCC(=O)O)C(=O)N[C@@H](C)C(=O)N[C@@H](C)C(=O)N[C@@H](CO)C(=O)N1CCC[C@H]1C(=O)N[C@@H](CCC(=O)O)C(=O)N[C@@H](CCC(=O)O)C(=O)N[C@@H](CC(C)C)C(=O)N[C@@H](CCC(N)=O)C(=O)N[C@@H](CCCNC(=N)N)C(=O)N[C@@H](Cc1ccc(O)cc1)C(=O)N[C@@H](Cc1ccc(O)cc1)C(=O)N[C@H](C(=O)N[C@@H](CO)C(=O)N[C@@H](C)C(=O)N[C@@H](CCCNC(=N)N)C(=O)N[C@@H](Cc1c[nH]cn1)C(=O)N[C@@H](Cc1ccc(O)cc1)C(=O)N[C@@H](Cc1ccc(O)cc1)C(=O)N[C@@H](CC(N)=O)C(=O)N[C@@H](Cc1c[nH]c2ccccc12)C(=O)N[C@@H](CC(C)C)C(=O)N[C@H](C(=O)N[C@@H](CCCNC(=N)N)C(=O)N[C@@H](CCC(N)=O)C(=O)N[C@@H](CCCNC(=N)N)C(=O)N[C@@H](Cc1ccc(O)cc1)C(N)=O)[C@@H](C)O)C(C)C) [Compound 141] | 3.12 nM
5 | Isovaleryl-APEK([AEEA-AEEA-γGlu-C18 diacid])PEADASPEELQRYYVELRHYYNWLTRQRY-NH2 (SMILES CC(C)CC(=O)N[C@@H](C)C(=O)N1CCC[C@H]1C(=O)N[C@@H](CCC(=O)O)C(=O)N[C@@H](CCCCNC(=O)COCCOCCNC(=O)COCCOCCNC(=O)CC[C@H](NC(=O)CCCCCCCCCCCCCCCCC(=O)O)C(=O)O)C(=O)N1CCC[C@H]1C(=O)N[C@@H](CCC(=O)O)C(=O)N[C@@H](C)C(=O)N[C@@H](CC(=O)O)C(=O)N[C@@H](C)C(=O)N[C@@H](CO)C(=O)N1CCC[C@H]1C(=O)N[C@@H](CCC(=O)O)C(=O)N[C@@H](CCC(=O)O)C(=O)N[C@@H](CC(C)C)C(=O)N[C@@H](CCC(N)=O)C(=O)N[C@@H](CCCNC(=N)N)C(=O)N[C@@H](Cc1ccc(O)cc1)C(=O)N[C@@H](Cc1ccc(O)cc1)C(=O)N[C@H](C(=O)N[C@@H](CCC(=O)O)C(=O)N[C@@H](CC(C)C)C(=O)N[C@@H](CCCNC(=N)N)C(=O)N[C@@H](Cc1c[nH]cn1)C(=O)N[C@@H](Cc1ccc(O)cc1)C(=O)N[C@@H](Cc1ccc(O)cc1)C(=O)N[C@@H](CC(N)=O)C(=O)N[C@@H](Cc1c[nH]c2ccccc12)C(=O)N[C@@H](CC(C)C)C(=O)N[C@H](C(=O)N[C@@H](CCCNC(=N)N)C(=O)N[C@@H](CCC(N)=O)C(=O)N[C@@H](CCCNC(=N)N)C(=O)N[C@@H](Cc1ccc(O)cc1)C(N)=O)[C@@H](C)O)C(C)C) [Compound 135] | 1.31 nM
6 | Isovaleryl-APAK([AEEA-AEEA-γGlu-C18 diacid])PEEDASPEELQQYYVSLRHYYNWLTRQRY-NH2 (SMILES CC(C)CC(=O)N[C@@H](C)C(=O)N1CCC[C@H]1C(=O)N[C@@H](C)C(=O)N[C@@H](CCCCNC(=O)COCCOCCNC(=O)COCCOCCNC(=O)CC[C@H](NC(=O)CCCCCCCCCCCCCCCCC(=O)O)C(=O)O)C(=O)N1CCC[C@H]1C(=O)N[C@@H](CCC(=O)O)C(=O)N[C@@H](CCC(=O)O)C(=O)N[C@@H](CC(=O)O)C(=O)N[C@@H](C)C(=O)N[C@@H](CO)C(=O)N1CCC[C@H]1C(=O)N[C@@H](CCC(=O)O)C(=O)N[C@@H](CCC(=O)O)C(=O)N[C@@H](CC(C)C)C(=O)N[C@@H](CCC(N)=O)C(=O)N[C@@H](CCC(N)=O)C(=O)N[C@@H](Cc1ccc(O)cc1)C(=O)N[C@@H](Cc1ccc(O)cc1)C(=O)N[C@H](C(=O)N[C@@H](CO)C(=O)N[C@@H](CC(C)C)C(=O)N[C@@H](CCCNC(=N)N)C(=O)N[C@@H](Cc1c[nH]cn1)C(=O)N[C@@H](Cc1ccc(O)cc1)C(=O)N[C@@H](Cc1ccc(O)cc1)C(=O)N[C@@H](CC(N)=O)C(=O)N[C@@H](Cc1c[nH]c2ccccc12)C(=O)N[C@@H](CC(C)C)C(=O)N[C@H](C(=O)N[C@@H](CCCNC(=N)N)C(=O)N[C@@H](CCC(N)=O)C(=O)N[C@@H](CCCNC(=N)N)C(=O)N[C@@H](Cc1ccc(O)cc1)C(N)=O)[C@@H](C)O)C(C)C) [Compound 138] | 1.42 nM
